The values that follow come from patent US20240254245A1 (JIANGSU HENGRUI PHARMACEUTICALS, published 2024).

For orientation: IC50 means the midpoint of a concentration-inhibition curve. What is called Kd is the equilibrium constant for the complex coming apart. High values mean lower affinity, low ones higher affinity. By koff is commonly meant the first-order rate constant of dissociation. By kon is commonly meant a measure of how fast the partners come together.

To fix the notation:
T1: human RANKL protein (Sino Biological, 11682-HNCH) (human, UniProt O14788 136-317, limits assumed)
T1 construct: Bought protein
T1 sequence (looked up): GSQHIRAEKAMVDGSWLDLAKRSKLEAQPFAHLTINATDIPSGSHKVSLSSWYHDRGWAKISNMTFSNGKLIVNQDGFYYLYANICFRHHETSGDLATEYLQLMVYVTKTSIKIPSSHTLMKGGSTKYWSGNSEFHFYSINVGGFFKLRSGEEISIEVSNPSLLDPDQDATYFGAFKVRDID

B1: 5-53H (antibody, V domains shown)
VH: EVQLLESGGGLVQPGGSLRLSCAASGFTFSSYAMSWVRQAPGKGLEWVSGITGSGGSTYYADSVKGRFTISRDNSKNTLYLQMNSLRAEDTAVYYCAQDPCFTYIMSWFDPWGQGTLVTVSS
VL: EIVLTQSPGTLSLSPGERATLSCRASQSVRGRYLAWYQQKPGQAPRLLIYGASSRATGIPDRFSGSGSGTDFTLTISRLEPEDFAVFYCQQYGSSPRTFGQGTKVEIK
notes: Variable regions fused to human constant regions
B2: 2-79L (antibody, V domains shown)
VH: EVQLLESGGGLVQPGGSLRLSCAASGFTFSSYAMSWVRQAPGKGLEWVSGITGSGGSTYYADSVKGRFTISRDNSKNTLYLQMNSLRAEDTAVYYCAKDPGTTVIMSWFDPWGQGTLVTVSS
VL: EIVLTQSPGTLSLSPGERATLSCRASQSVRGRYLAWYQQKPGQAPRLLIYGSSSRATGIPDRFSGSGSGTDFTLTISRLEPEDFAVFYCQQYGSSPRTFGQGTKVEIK
notes: as for B1
B3: 1-22H (antibody, V domains shown)
VH: EVQLLESGGGLVQPGGSLRLSCAASGFTFADYAMSWVRQAPGKGLEWVSGISASGSSTYYADSVKGRFTISRDNSKNTLYLQMNSLRAEDTAVYYCAKDPGTTVIMSWFDPWGQGTLVTVSS
VL: EIVLTQSPGTLSLSPGERATLSCRASQSVRGRYLAWYQQKPGQAPRLLIYGASSRATGIPDRFSGSGSGTDFTLTISRLEPEDFAVFYCQQYGSSPRTFGQGTKVEIK
notes: Variable regions were fused to human heavy and light chain constant regions to form complete chains
B4: 2-52L (antibody, V domains shown)
VH: EVQLLESGGGLVQPGGSLRLSCAASGFTFSSYAMSWVRQAPGKGLEWVSGITGSGGSTYYADSVKGRFTISRDNSKNTLYLQMNSLRAEDTAVYYCAKDPGTTVIMSWFDPWGQGTLVTVSS
VL: EIVLTQSPGTLSLSPGERATLSCRASQSVRGRYLAWYQQKPGQAPRLLIYQGSSRATGIPDRFSGSGSGTDFTLTISRLEPEDFAVFYCQQYGSSPRTFGQGTKVEIK
notes: as for B1
B5: 3-83L (antibody, V domains shown)
VH: EVQLLESGGGLVQPGGSLRLSCAASGFTFSSYAMSWVRQAPGKGLEWVSGITGSGGSTYYADSVKGRFTISRDNSKNTLYLQMNSLRAEDTAVYYCAKDPGTTVIMSWFDPWGQGTLVTVSS
VL: EIVLTQSPGTLSLSPGERATLSCRASQALGVRGLAWYQQKPGQAPRLLIYGASSRATGIPDRFSGSGSGTDFTLTISRLEPEDFAVFYCQQYGSSPRTFGQGTKVEIK
notes: as for B1
B6: 5-51H (antibody, V domains shown)
VH: EVQLLESGGGLVQPGGSLRLSCAASGFTFSSYAMSWVRQAPGKGLEWVSGITGSGGSTYYADSVKGRFTISRDNSKNTLYLQMNSLRAEDTAVYYCAKDPCFSYIMSWFDPWGQGTLVTVSS
VL: EIVLTQSPGTLSLSPGERATLSCRASQSVRGRYLAWYQQKPGQAPRLLIYGASSRATGIPDRFSGSGSGTDFTLTISRLEPEDFAVFYCQQYGSSPRTFGQGTKVEIK
notes: as for B1
B7: 5-16H (antibody, V domains shown)
VH: EVQLLESGGGLVQPGGSLRLSCAASGFTFSSYAMSWVRQAPGKGLEWVSGITGSGGSTYYADSVKGRFTISRDNSKNTLYLQMNSLRAEDTAVYYCAKDPASIVIMSWFDPWGQGTLVTVSS
VL: EIVLTQSPGTLSLSPGERATLSCRASQSVRGRYLAWYQQKPGQAPRLLIYGASSRATGIPDRFSGSGSGTDFTLTISRLEPEDFAVFYCQQYGSSPRTFGQGTKVEIK
notes: as for B1
B8: 3-37L (antibody, IgG4, V domains shown)
VH: EVQLLESGGGLVQPGGSLRLSCAASGFTFSSYAMSWVRQAPGKGLEWVSGITGSGGSTYYADSVKGRFTISRDNSKNTLYLQMNSLRAEDTAVYYCAKDPGTTVIMSWFDPWGQGTLVTVSS
VL: EIVLTQSPGTLSLSPGERATLSCRASQAIRGRKLAWYQQKPGQAPRLLIYDTSSRATGIPDRFSGSGSGTDFTLTISRLEPEDFAVFYCQQYGSSPRTFGQGTKVEIK
notes: as for B1
B9: 4-64L (antibody, V domains shown)
VH: EVQLLESGGGLVQPGGSLRLSCAASGFTFSSYAMSWVRQAPGKGLEWVSGITGSGGSTYYADSVKGRFTISRDNSKNTLYLQMNSLRAEDTAVYYCAKDPGTTVIMSWFDPWGQGTLVTVSS
VL: EIVLTQSPGTLSLSPGERATLSCRASQSVRGRYLAWYQQKPGQAPRLLIYGASSRATGIPDRFSGSGSGTDFTLTISRLEPEDFAVFYCQQYGSSPRIFGQGTKVEIK
notes: as for B1
B10: 2-87L (antibody, IgG4, V domains shown)
VH: EVQLLESGGGLVQPGGSLRLSCAASGFTFSSYAMSWVRQAPGKGLEWVSGITGSGGSTYYADSVKGRFTISRDNSKNTLYLQMNSLRAEDTAVYYCAKDPGTTVIMSWFDPWGQGTLVTVSS
VL: EIVLTQSPGTLSLSPGERATLSCRASQYLPFHRLAWYQQKPGQAPRLLIYDTSSRATGIPDRFSGSGSGTDFTLTISRLEPEDFAVFYCQQYGSSPRTFGQGTKVEIK
notes: as for B1
B11: 2-72L (antibody, V domains shown)
VH: EVQLLESGGGLVQPGGSLRLSCAASGFTFSSYAMSWVRQAPGKGLEWVSGITGSGGSTYYADSVKGRFTISRDNSKNTLYLQMNSLRAEDTAVYYCAKDPGTTVIMSWFDPWGQGTLVTVSS
VL: EIVLTQSPGTLSLSPGERATLSCRASQSLGARGLAWYQQKPGQAPRLLIYGTSSRATGIPDRFSGSGSGTDFTLTISRLEPEDFAVFYCQQYGSSPRTFGQGTKVEIK
notes: as for B1
B12: 3-20L (antibody, IgG4, V domains shown)
VH: EVQLLESGGGLVQPGGSLRLSCAASGFTFSSYAMSWVRQAPGKGLEWVSGITGSGGSTYYADSVKGRFTISRDNSKNTLYLQMNSLRAEDTAVYYCAKDPGTTVIMSWFDPWGQGTLVTVSS
VL: EIVLTQSPGTLSLSPGERATLSCRASQAIRGPNLAWYQQKPGQAPRLLIYDTSSRATGIPDRFSGSGSGTDFTLTISRLEPEDFAVFYCQQYGSSPRTFGQGTKVEIK
notes: as for B1
B13: 2-76L (antibody, IgG4, V domains shown)
VH: EVQLLESGGGLVQPGGSLRLSCAASGFTFSSYAMSWVRQAPGKGLEWVSGITGSGGSTYYADSVKGRFTISRDNSKNTLYLQMNSLRAEDTAVYYCAKDPGTTVIMSWFDPWGQGTLVTVSS
VL: EIVLTQSPGTLSLSPGERATLSCRASQAIPYNQLAWYQQKPGQAPRLLIYGVSSRATGIPDRFSGSGSGTDFTLTISRLEPEDFAVFYCQQYGSSPRTFGQGTKVEIK
notes: as for B1
B14: 3-85L (antibody, V domains shown)
VH: EVQLLESGGGLVQPGGSLRLSCAASGFTFSSYAMSWVRQAPGKGLEWVSGITGSGGSTYYADSVKGRFTISRDNSKNTLYLQMNSLRAEDTAVYYCAKDPGTTVIMSWFDPWGQGTLVTVSS
VL: EIVLTQSPGTLSLSPGERATLSCRASQSIPGPRLAWYQQKPGQAPRLLIYGASSRATGIPDRFSGSGSGTDFTLTISRLEPEDFAVFYCQQYGSSPRTFGQGTKVEIK
notes: as for B1

In one assay the target is T1, human RANKL protein (Sino Biological, …). As to the kind of experiment: blocking ELISA: antibody titrated with fixed biotin-human RANKL, on coated human RANK. As for the experimental part: After the incubation was complete, the plate was washed 3 times with PBST. Streptavidin-HRP (Invitrogen, 434323, diluted at 1:4000) was added at 100 μL/well, and the plate was incubated at 37° C. for 1 h. The supernatant was removed. After the plate was washed 3 times with PBST, TMB chromogenic substrate (KPL, 5120-0077) was added at 100 μL/well, and the plate was incubated at room temperature for 10 to 15 min. […] The absorbance values at 450 nm were taken using a microplate reader.
Molecule B1 registered an IC50 of 1.37 nM.

The target is the same in a further assay. As to the kind of experiment: SPR (Biacore), antibody captured on Protein A chip, RANKL in flow, 1:1 fit. As for the experimental part:
Reaction signals were detected in real time by using Biacore, and binding and dissociation curves were obtained. After dissociation was complete in each cycle, the biochip was washed and regenerated with a glycine-hydrochloric acid regeneration solution (GE, BR-1003-54) having a pH of 1.5. Fitting was performed on the experimental data using BIAevaluation version 4.1 software with a 1:1 model, and affinity values were obtained.
In general terms: Surface plasmon resonance follows binding to a sensor surface in real time, without labels.
With B2, the Kd was determined as 16.3 nM, the “Ratio of affinities (fold increase in affinity relative to denosumab)” value worked out at 0.57 fold, the koff came out at 0.000232 s⁻¹ and the kon stood at 14200 M⁻¹ s⁻¹.
For B3 the same measures were 9.81 nM, 0.94 fold, 0.000253 s⁻¹ and 25800 M⁻¹ s⁻¹.
In the case of B4, binding was characterised by a dissociation constant (Kd) of 14.2 nM, the “Ratio of affinities (fold increase in affinity relative to denosumab)” value came out at 0.65 fold, the koff was found to be 0.000222 s⁻¹ and the kon turned out to be 15700 M⁻¹ s⁻¹.
Consider B5, for which the Kd worked out at 20.7 nM, the “Ratio of affinities (fold increase in affinity relative to denosumab)” value is 0.45 fold, the koff amounted to 0.000322 s⁻¹ and the kon is 15600 M⁻¹ s⁻¹.
For B6, the Kd turned out to be 23.6 nM, the “Ratio of affinities (fold increase in affinity relative to denosumab)” value was 0.39 fold, the koff turned out to be 0.00069 s⁻¹ and the kon was found to be 29200 M⁻¹ s⁻¹.
Take B7: the Kd came out at 8.91 nM, the “Ratio of affinities (fold increase in affinity relative to denosumab)” value is 1.04 fold, the koff was found to be 0.00026 s⁻¹ and the kon was 29200 M⁻¹ s⁻¹.
For B8 the same measures were 19.7 nM, 0.47 fold, 0.000305 s⁻¹ and 15500 M⁻¹ s⁻¹.
For B9, in that order: 17.1 nM, 0.54 fold, 0.000253 s⁻¹ and 14800 M⁻¹ s⁻¹.
For B1, in that order: 34 nM, 0.27 fold, 0.000583 s⁻¹ and 17200 M⁻¹ s⁻¹.
On to B10, for which binding was put at a Kd of 25.6 nM, the “Ratio of affinities (fold increase in affinity relative to denosumab)” value amounted to 0.36 fold, the off-rate (koff) came to 0.000273 s⁻¹ and the kon is 10700 M⁻¹ s⁻¹.
For B11, the Kd amounted to 19 nM, the “Ratio of affinities (fold increase in affinity relative to denosumab)” value worked out at 0.49 fold, the koff worked out at 0.000308 s⁻¹ and the kon turned out to be 16200 M⁻¹ s⁻¹.
Take B12: binding was put at a Kd of 13.5 nM, the “Ratio of affinities (fold increase in affinity relative to denosumab)” value was found to be 0.68 fold, the off-rate constant (koff) was 0.000272 s⁻¹ and the kon worked out at 20100 M⁻¹ s⁻¹.
Regarding B13, the Kd was 20.3 nM, the “Ratio of affinities (fold increase in affinity relative to denosumab)” value is 0.46 fold, the koff came to 0.000341 s⁻¹ and the kon was 16800 M⁻¹ s⁻¹.
As to B14, the Kd came to 22.3 nM, the “Ratio of affinities (fold increase in affinity relative to denosumab)” value was found to be 0.41 fold, the koff is 0.000335 s⁻¹ and the kon amounted to 15000 M⁻¹ s⁻¹.
